According to a protein production outcome set (Wang et al. 2014):

Assay: label from the status in PepcDB records

**Q.** With “MAICESGALPSHVGALSYSGGAASSFFGRRNADGLNDKWLALRDAFRAAGGDLLAIEDARSAALDFVIHVNAHRLRHDVPAFVILAESEFIHPPNVDWRMLQQYKGIFTWMPDLVRRGIGTEICLAHPLGAGVVDGYQERPQLLVMIASNKALPVWRPAVDLYRERVRAIRWFEKHAPQAFALYGHDWDKSPRLPTPLGGIVHGVEFVLPWRLQWFPSWKGVIPSKREVLRHARFSLCYENVRGLRGYITEKIFDAFCAGNVPVYWGAEDITDYIPADCFIDRRAFGDYADLYRYLTSMPETRYIQYQQAICDFLVSPAAKRFSSEIFATTIVGKVLDTLGRRDELEHHHHHH” as the sequence, how does the protein production read?
**A.** failed

**Q.** With “MAIDPNSIGAVTEPMLFEWTDRDTLLYAIGVGAGTGDLAFTTENSHGIDQQVLPTYAVICCPAFGAAAKVGTFNPAALLHGSQGIRLHAPLPAAGKLSVVTEVADIQDKGEGKNAIVVLRGRGCDPESGSLVAETLTTLVLRGQGGFGGARGERPAAPEFPDRHPDARIDMPTREDQALIYRLSGDRNPLHSDPWFATQLAGFPKPILHGLCTYGVAGRALVAELGGGVAANITSIAARFTKPVFPGETLSTVIWRTEPGRAVFRTEVAGSDGAEARVVLDDGAVEYVAG” as the sequence, how does the protein production read?
**A.** not failed

**Q.** For “MAIDSKPHDDLQLFKTNLHPCGYWPDRWASDLVMDPNDPRLGAIYPQTLAWGFRRSGNLLYRPHCEHCNACVPVRVNVNAFVPNRSQRRCLARNATLVTRIVPAERNAEQLSLYRRYLHQRHPDGGMDGHGAIEFDQFLIGPWGYGRFMEIREPATNGTPGQLLAVAVTDLTHQALSAVYTFYEPNAAARGLGTLAILHQIHWAQREQRPYLYLGYWIKDHFKMDYKRRFQKLEIYDGYRWRPFSTTYPTTHTLLEHHHHHH”, which protein production is on record?
**A.** not failed

**Q.** For “MAIDTNSSTPLVSVITPTYNRPNYLQAALTSAVRQTYSHIEIIVCDNCSPQNPQAIVDSFDDSRIRFFRNSSNMGMFANTIKAFKMARGKYVACLLDDDLWEEDFLEKLVPPLEANPNLALAFCDHYIMDANGNIDDALTEEYSRSYKRVDLPEGIYQPFYRMGLVDRSVSTATAAVMRRDAIAWDAIPAEVGGSWDIYLNYLCCRSGLGAYFYPEKLTRYRVHEQTETMLSGKRDAQAKIRKAQADMFCYEQFMADERLQELKPYFQQQWAHVSTTLGIGFMRSKQMKLARSYFWRSLKQSLKLRTMAGLMLSFTPPTIASRF”, which protein production is on record?
**A.** failed

**Q.** For “MAIETAILEKIKQYQTIIIHRHQRPDPDCIGSQLALRAILRASFPEKTVVAVGKHYPGFDWMGQADQEVSDDTYHQALVIVVDTANQPRVDDERWQTGAAVIKIDHHPNDDAFGDLQWVLPQASSTSEIIYDWFEANHADLTMPDDAARLLYAGIVGDTGRFMYPATSANTFAVAGKLLAYDFSMTAVNQAEDEISPEMARLSAYAYQNLEILPSGAAYLKLTDEIVESFGLAASDSTSAIVPLPGKITSVVAWAIFVESKDKTFRVRLRSKGPSINELAKRHGGGGHALASGAAAKDQAEIDQVIHELDQLVADTKGENELEHHHHHH”, which protein production is on record?
**A.** not failed

**Q.** With “MAIGERIHFFRLLRGMTQKYLGTAVGFPERSADVRLAQYETGSRKPKADLTAALAQVLDVSPQALDVPDIDSQIGLMHTLFTLEDVYGLTISEADGEVCLKVNKDKGKKAYELLQMLYVWKEQADKLSAGEISKDDYDRWRYYYPKYDTTQLWAKVPSQQLSDTLVEAFQDKLKKDELEHHHHHH” as the sequence, how does the protein production read?
**A.** failed

**Q.** For “MAIGSLSSLGLGSKVLNYDVIDKLKDADEKALIAPLDKKMEQNVEKQKALVEIKTLLSALKGPVKTLSDYSTYISRKSNVTGDALSASVGVGVPIQDIKVDVQNLAQGDI”, which protein production is on record?
**A.** failed

**Q.** For “MAIKAGKVLRTATAAARKFQQKQFSASSSAFPEPPPVSPSSGVGAFLGIPKIIRSESDLLVSKYIRIAQGRLTKKGDYTEEKLKKMLSGEDRVGIGETMKLLEGRNTGLVSSKKPNSGRSKK”, which protein production is on record?
**A.** failed

**Q.** For “MAIKGPRKHLKRLAAPANWQLPRKVKTFTVRPSPGPHSMDKSLPLLLVVRDVLKYADNAREAKKIIQTGKILIDGLKRKEYKHPAGLMDVLSIPEMDETYLVLFDESGRISLKKTDKTDVKLCKIVNKTVVKGGNIQLNLHDGRNQIVKVSDAAKAEEDVYKTGDSVLISIPEQSIAGHVAFGEGKLAYITGGKHVGEFAKIVEVENRALYSDIVTLENKDGEKFKTVKPYVFIVGQDEPVISMLEHHHHHH”, which protein production is on record?
**A.** not failed

**Q.** With “MAIKNAFYAQSGGVTAVINASACGVIQTARKHPDQIGKVYAGRNGIIGALKEELIDTSLESDDAIQALIHTPGGAFGSCRYKLKNISENQREYERLIEVFRAHDIGYFFYNGGGDSQDTAYKVSQLADRMGYPITCIGVPKTVDNDLPFTDCCPGFGSVAKYIATSTLEASLDIKSMCETSTKVFILEVMGRHAGWIAAAGGLAGQSEGEPPHVILFPEIPFNREKFLERVDQCVRDYGYCVVVASEGAQYEDGRFVADAGAKDAFGHTQLGGVAPALANMVKQALGHKYHWAVADYLQRAARHIASATDVEQAYAVGKAAVEMALAGKQALMPTIVRDQAKPYRWSIGEANLSEVANQEKKMPIHYITDNGFGITQDCRDYLQPLIAGESFPPFDDGLPRVAKLKNQLVEKKLRTEFELLEHHHHHH” as the sequence, how does the protein production read?
**A.** failed

**Q.** With “MAINPNPRSVVAVRATVPEDAFTAGALGTLREGSGVVIRNDGLVLTIGYLITEAEEVWLTAYDGRVIPAHALAYDQESGFGLVQALAPTGLPAVALGDAGKARIGDAVVLADGIGRAVEAKIVTKQEFAGYWEYLLDEAIFIAPAHPSWGGAPLFGADGALLGIGSLRLQMSRAGEVADINMVVPIDLLPPILDDLLTRGQVAKPPRPWLGALSAESDGKVVVMSVTEGGPAAKAGLRQGDVISEVRDGAVDGLADFYRKLWDSGSAGAEIPMRVVRDGRETWLRVKSADRGSFLKKPQLQ” as the sequence, how does the protein production read?
**A.** failed

**Q.** Which protein production does the source give for “MAISVFDLFKIGIGPSSSHTVGPMRAAALFTAALRQRQALSAVRRLEVRLYGSLSATGVGHGTDRAVIMGLMGEWPDRIDPTQIAPRMAALLDSGLLQLDGRVAVPFDWVRDMRLLDENLPYHPNAMTLVAYGEQGELHQETYYSVGGGFVVDAAQAASGQLDQDHTVLPYDFSSAEELLLLCKRHNLRVSELMLANERIWRSETDIREGLRRIWQAMRDCVDNGLRNEGILPGGLNVQRRAARLHRNLQEIGKPNVIGSTLSAMEWVNLFALAVNEENAAGGRMVTAPTNGAAGIIPAVLHYYMKFNPDAQDRDVVDYLLAAAAVGILCKKNASISGAEVGCQGEVGSACAMAAAGLAEVLGATPAQVENAAEIGLEHNLGLTCDPVGGLVQVPCIERNAIAAVKAINAAQMALRGDGQHFISLDKVIRTMRDTGADMHDKYKETSRGGLAVNAIE” here?
**A.** failed

**Q.** With “MAITVKGLTNKLTRTQRRIAVVEFIFSLLFFLPKEAEVIQADFLEYDTKERQLNEWQKLIVKAFSENIFSFQKKIEEQQLKNQLEIQTKYNKISGKKIDLLTTAVVLCALSEQKAHNTDKPLLISEALLIMDHYSQGAEKKQTHALLDKLL” as the sequence, how does the protein production read?
**A.** not failed

**Q.** With “MAKAIVSIFVVFFIFFLVISDVPEIEAQGNECLKEYGGDVGFGFCAPRIFPTICYTRCRENKGAKGGRCRWGQGSNVKCLCDFCDDTPQ” as the sequence, how does the protein production read?
**A.** not failed

**Q.** With “MAKEKTLDDLFHDTLKDIYYAERKILKALPKMARAAQAPELKAAFEKHKEQTETHVERLQQVFEMIGKRAQGKTCEAIEGIVAEGEEIMDEFKGTAALDAGLISAAQAVEHYEISRYGTLKTWAKTIGLKDAVSLLDATLKEEVVTDEDLTKLAMAQVNKKAA” as the sequence, how does the protein production read?
**A.** not failed

**Q.** For “MAKETVCVTGANGFIGSWIIRTLIEKGYTKIHASIYPGSDPTHLLQLPGSDSKIKIFEADLLDSDAISRAIDGCAGVFHVASPCTLDPPVDPEKELVEPAVKGTINVLEAAKRFNVRRVVITSSISALVPNPNWPEKVPVDESSWSDLDFCKSRQKWYPISKTLAEKAAWEFSEKHGTNIVTIHPSTCLGPLLQPNLNASCAVLLQLLQGSTETQEHHWLGVVHVKDVAKGHVMLFETPDASGRFLCTNGIYQFSEFAALVSKLFPEFAVHKFDKETQPGLTSCNDAAKRLIELGLVFTAVEDAVKETVQSLRDKGFL”, which protein production is on record?
**A.** failed

**Q.** For “MAKGGFPGFGGNINNLVKQAQKMQRDMERVQEELKEKTVEASAGGGAVTVVATGRKDIKEITIKPEVVDPDDVEMLQDLILAAVNEALRKADEMVTAEISKITGGLGGIPGLF”, which protein production is on record?
**A.** not failed

**Q.** For “MAKHLGESKQKLLQLMALSCPIRLNNAPRRLAKQARSQRIKRNISKGPGMSLSRCLSGLSNLLHYRREWLRADLRAGLSVAAIQIPIAIAYAQIVGLPPQYGLYACVLPMIVYALIGSSRQLMVGPDAATCAMLGGAVAPLAMGDLQRTVELSMIVTVLVGLMLIAAGIARAGFIASFFSRPILIGYLNGIGLSLIAGQMGKVVGFKIEGDGFILGLADFLQRLGEIHGLTLAVGLASLGLLIWLPRRYPRVPAALLTVALFTLLAGLLGFDRLGVAILGHVPAGMPELSWPKTTLEESKSLLRDALGIATVSFCSAMLTARSFAARHGYAINANHEFIALGLSNLAAGASQGFAISGADSRTAVNDMAGGKSQLVGIIAALAIALILLFFTAPMAWIPQPALGAVLLMAGWGLLDVKSLKQIYRLSRFEFWLCLLTTVSVLGLGVLPGIMFAVTLAILRLLYSIYQPTDAVLGWMPGIEGQVDIRQYPQARTVPGLVVYRFDDAILFFNADYFKMRLLDTVQRESQPEVVLFDAEAVTDIDVSGIAVLREIRETLAAQGIYFAIARARGTFLAMLERSGMTREMDSQLLFGSVRSGIRTYRIWRNSMRGKQ”, which protein production is on record?
**A.** failed

**Q.** Which protein production does the source give for “MAKIKKYTTKTGKIRYEFQVYAGVDSLTGRQKTTRRRGFKTRKEASIVLSRLELEIEKRGLQEDERRFFRDVCAEWMEQYRLTVRESTLEKTQRIINIHVLPAFGDMVINNITPNVCQKVVNKWFLEAKSYKKWLNYASMIFDYALRAEYVGRNPCTLVTMPRVQEQAGEKLENFWTRDELNTFFDYVTPERDVEQFTMFRVLAYSGIRKGELLALTWKDINFEDNTLRVNKTLTQGLGGKLIVQPPKSRAGRRTIDLDDSTMRYLRQWKGVQRETFLGMGFNTNNVDQLVFASNRNHFRSMNTPTKWLNKAIKATGLKHISIHGFRHTHASLLYQSGVGLKETQQRLGHSRADSSVTLDVYTHTTEQQNVAALQRFENYVEAK” here?
**A.** failed

**Q.** For “MAKKTGTKEPAPKKEKKKKERRRGKGEGTIVPHASGLFMAQISLGRDPLTGKRIRPTIYDDSEVGVQKKLRKLLIKKDLGKSVKPNKTLVGEWIRIWLDIYSKPNVGIGTWDGYDLNFTNHIENSFIARKTMSGLTTDDLQVYYNMKLLNGRKDGKGGLSTRFVKAIHTVISSAFDQAVTSGHLEKNPASGVRISNKRRPKIKIWNKEQMALYLKAIKKDRLYAAFVTDSKSGLRKSELLALRWSDIDFSTGLTKIERGWVRSPKGTLYLSDLKSENSERTLVFSTDLLKVLLEHKSRQDEEKKTAGKNYIDNGLVFCREDGSYINPSTFTRRHYDLTAKAKLPRISVHALRHSISTALLESGKVDLKQIQEMLGHKDISTTGNYYTDVLERMKQKTSELIDNLIQTEETPAQASLPAAQPSASDLAEEESVEAKNVIDFATRRNEKLFIASNGQKQKNREKAQKP”, which protein production is on record?
**A.** failed

**Q.** With “MAKKVKVITDPEVIKVMLEDTRRKILKLLRNKEMTISQLSEILGKTPQTIYHHIEKLKEAGLVEVKRTEMKGNLVEKYYGRTADVFYINLYLGDEELRYIARSRLKTKIDIFKRLGYQFEENELLNIMDRMSQKEFDATVRISKYIEEKEDALKDFSNEDIIHAIEWLSTAELARDEEYLELLKRLGSILKR” as the sequence, how does the protein production read?
**A.** not failed

**Q.** Which protein production does the source give for “MAKLTTDSPLCRKIVRSFLNFLDSVEVAPGVDEEGLEVARECLREAFKLNSDSSRDDDDDSFKPISLVNLFTSLDNNETIPPPPPPPVAATTQDPSSSGSHVSVDTCKEPSFTGTSRDELFGQLFGALEKVRYFRNTPDGDDDPAQLEKATRIFHDCVNEMEKSGCQTFDVNSLAETLKCQGNKAMQSNLYLEAVELYSFAIALTDKNAVFYCNRAAAYTQINMCSEAIKDCLKSIEIDPNYSKAYSRLGLAYYAQGKYAEAIEKGFKKALLLDPHNESVKENIRVAEQKIREEQQRQRRSQQNTSTFYTQEPEMGGGQGIPSQFSMPVNPDLMSMFMNMAGNTFPGNHSRNNEGGAGGDGTRNGADEPEIHVGGNINIDLGGTEQMPEDLSGALRSMMQMFGGSMGGTGNNNPQDSNGAQGRPSGN” here?
**A.** failed
